Data from patent publication US20250195657A1 (NEOMICS PHARMACEUTICALS, published 2025).

Target: T1, B cell maturation antigen (BCMA) (UniProt Q02223 1-54, limits assumed)
T1 construct: also called CD269; TNFRSF17
T1 sequence (looked up): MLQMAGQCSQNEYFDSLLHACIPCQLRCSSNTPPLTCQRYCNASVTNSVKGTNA
Experiment: not stated (no method given)

Kd: 1 nM
B1: BCMA nanobody (BCMA binding domain of NPB5005) (VHH)
VHH: EVQLQASGGGLAQPGGSLRLSCAASGRTFSTYFMAWFRQPPGKGLEYVGGIRWSDGVPHYADSVKGRFTISRDNAKNTVYLQMNSLRAEDTAVYFCASRGIADGSDFGSYGQGTQVTVSS
